Measured values as given in publication PMC6470172, “Conformational plasticity in the KcsA potassium channel pore helix revealed by homo-FRET studies” (Scientific Reports, 2019).

How the values were obtained:
[1] = molecular target: the molecule itself; assay: SDS-PAGE of the tetramer; 13.5% SDS-PAGE of the detergent-solubilised protein; 20 mM Hepes pH 7 or 10 mM succinic acid pH 4, 5 mM DDM, 200 mM Cs+, Rb+, K+ or Na+, or TBA+
[2] = molecular target: the molecule itself; assay: FRET or BRET; homo-FRET between the W67 residues of the subunits, read by steady-state and time-resolved fluorescence anisotropy; 6 uM protein (monomer based), 5 mM DDM, pH 7 or pH 4, saturating monovalent cations or TBA+, room temperature

Row | Protein | stoichiometry N [1] | binding result [2]
1 | KcsA W26,68,87,113F quadruple mutant channel (W67 KcsA) (natural protein, S. lividans, UniProt P0A334 1-160, looked up, KcsA potassium channel cloned from S. lividans; single Trp (W67) left per subunit; called full-length in the discussion; Homotetramer; also called KcsA W67) MPPMLSGLLARLVKLLLGRHGSALHFRAAGAATVLLVIVLLAGSYLAVLAERGAPGAQLITYPRALWFSVETATTVGYGDLYPVTLFGRLVAVVVMVAGITSFGLVTAALATFFVGREQERRGHFVRHSEKAAEEAYTRTTRALHERFDRLERMLDDNRR | 4 | 
2 | KcsA W26,68,87,113F E71A mutant channel (W67 E71A KcsA) (natural protein, S. lividans, UniProt P0A334 1-160, looked up, KcsA potassium channel cloned from S. lividans; also called E71A W67 KcsA; E71A W67) MPPMLSGLLARLVKLLLGRHGSALHFRAAGAATVLLVIVLLAGSYLAVLAERGAPGAQLITYPRALWFSVATATTVGYGDLYPVTLFGRLVAVVVMVAGITSFGLVTAALATFFVGREQERRGHFVRHSEKAAEEAYTRTTRALHERFDRLERMLDDNRR |  | binds
